Article PMC9896810, “Crk proteins activate the Rap1 guanine nucleotide exchange factor C3G by segregated adaptor-dependent and -independent mechanisms” (Cell Communication and Signaling : CCS, 2023)

T1: C3G-AAPA-Y554H (human, UniProt Q13905-1 4-1077, P283A | P284A | L286 | P287 | P289A | P453A | P454A | L456A | P457A | K459A | …)
T1 construct: human C3G isoform a, residues 4-1077; source: E. coli BL21 (DE3), purified (IMAC, TEV digestion, reversed IMAC, SEC); not shown: His, N-terminal, cleaved; Halo, N-terminal, cleaved
T1 sequence (looked up): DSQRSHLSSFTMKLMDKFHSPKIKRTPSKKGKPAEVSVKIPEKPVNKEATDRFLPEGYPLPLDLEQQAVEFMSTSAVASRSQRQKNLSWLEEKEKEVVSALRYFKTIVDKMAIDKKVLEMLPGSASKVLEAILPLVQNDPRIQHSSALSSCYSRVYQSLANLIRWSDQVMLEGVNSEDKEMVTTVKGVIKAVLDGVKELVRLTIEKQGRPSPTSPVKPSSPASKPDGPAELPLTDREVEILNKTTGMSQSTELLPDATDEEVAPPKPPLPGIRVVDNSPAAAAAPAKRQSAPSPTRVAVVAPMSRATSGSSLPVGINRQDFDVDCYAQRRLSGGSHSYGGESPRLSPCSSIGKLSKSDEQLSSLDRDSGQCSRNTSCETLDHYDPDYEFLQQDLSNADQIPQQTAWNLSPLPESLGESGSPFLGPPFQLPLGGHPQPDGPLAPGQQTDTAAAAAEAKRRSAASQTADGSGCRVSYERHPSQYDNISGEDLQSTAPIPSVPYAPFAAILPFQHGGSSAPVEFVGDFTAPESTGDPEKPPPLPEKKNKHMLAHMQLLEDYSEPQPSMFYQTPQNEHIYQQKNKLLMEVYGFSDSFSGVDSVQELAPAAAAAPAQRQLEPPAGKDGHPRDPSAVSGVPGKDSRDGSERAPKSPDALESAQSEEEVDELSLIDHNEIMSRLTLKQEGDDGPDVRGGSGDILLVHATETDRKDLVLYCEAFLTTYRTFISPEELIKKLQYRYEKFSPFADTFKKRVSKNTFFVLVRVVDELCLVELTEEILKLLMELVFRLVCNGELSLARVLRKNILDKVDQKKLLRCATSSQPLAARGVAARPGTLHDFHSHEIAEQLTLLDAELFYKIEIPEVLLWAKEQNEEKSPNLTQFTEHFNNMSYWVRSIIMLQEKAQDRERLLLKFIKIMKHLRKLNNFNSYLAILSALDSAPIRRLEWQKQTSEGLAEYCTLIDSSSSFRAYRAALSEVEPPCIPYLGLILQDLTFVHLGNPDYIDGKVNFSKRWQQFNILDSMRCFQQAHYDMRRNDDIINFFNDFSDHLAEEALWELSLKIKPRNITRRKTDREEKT

T2: C3G-APAA (human, UniProt Q13905-1 4-1077, P283A | P284A | L286 | P287 | P289A | P540A | P541A | L543A | P544A | K546A | …)
T2 construct: human C3G isoform a, residues 4-1077; only P2 kept, P1, P3 and P4 mutated to Ala; source: E. coli BL21 (DE3), purified (IMAC, TEV digestion, reversed IMAC, SEC); not shown: His, N-terminal, cleaved; Halo, N-terminal, cleaved
T2 sequence (looked up): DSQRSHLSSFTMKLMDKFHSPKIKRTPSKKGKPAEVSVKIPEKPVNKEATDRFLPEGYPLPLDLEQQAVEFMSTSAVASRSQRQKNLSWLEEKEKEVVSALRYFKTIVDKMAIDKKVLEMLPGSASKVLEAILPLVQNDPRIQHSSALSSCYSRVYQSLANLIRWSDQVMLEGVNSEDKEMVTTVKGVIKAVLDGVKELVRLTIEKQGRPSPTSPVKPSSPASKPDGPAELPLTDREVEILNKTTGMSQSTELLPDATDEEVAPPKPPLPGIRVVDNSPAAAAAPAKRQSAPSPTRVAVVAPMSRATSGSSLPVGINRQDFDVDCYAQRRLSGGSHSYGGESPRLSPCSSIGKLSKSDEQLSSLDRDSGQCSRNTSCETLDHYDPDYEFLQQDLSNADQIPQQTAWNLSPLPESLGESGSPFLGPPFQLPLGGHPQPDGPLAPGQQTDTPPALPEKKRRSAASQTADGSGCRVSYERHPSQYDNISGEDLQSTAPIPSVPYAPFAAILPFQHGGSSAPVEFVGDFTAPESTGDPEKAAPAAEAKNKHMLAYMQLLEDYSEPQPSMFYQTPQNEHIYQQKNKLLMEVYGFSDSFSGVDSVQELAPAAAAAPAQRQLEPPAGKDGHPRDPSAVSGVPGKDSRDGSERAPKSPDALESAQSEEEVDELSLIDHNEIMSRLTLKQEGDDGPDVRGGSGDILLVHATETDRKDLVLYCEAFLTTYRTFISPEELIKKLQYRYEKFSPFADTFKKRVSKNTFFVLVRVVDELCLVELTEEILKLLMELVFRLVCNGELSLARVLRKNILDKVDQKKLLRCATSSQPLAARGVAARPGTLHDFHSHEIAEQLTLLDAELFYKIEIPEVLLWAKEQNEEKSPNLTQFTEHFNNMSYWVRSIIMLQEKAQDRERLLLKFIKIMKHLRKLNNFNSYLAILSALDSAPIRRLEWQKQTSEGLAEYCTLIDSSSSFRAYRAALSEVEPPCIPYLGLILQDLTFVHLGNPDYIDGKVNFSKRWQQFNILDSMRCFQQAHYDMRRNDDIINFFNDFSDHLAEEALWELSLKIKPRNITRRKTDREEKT


Tests used:
C3G-AAPA-Y554H = target: T1, C3G-AAPA-Y554H; assay: ITC; single-PRM mutant of C3G in the cell titrated with CrkL or CrkL-SH3N, 25 °C, 300 mM NaCl, pH 7.5; SEDPHAT, 1:1 heteroassociation model; N is the competent fraction of C3G; conditions: both partners purified
C3G-APAA = target: T2, C3G-APAA; assay: as above; conditions: both partners purified

Binder | stoichiometry N (C3G-AAPA-Y554H) | Kd (C3G-APAA) [nM] | stoichiometry N (C3G-APAA)
CrkL-SH3N (domain or fragment, human, UniProt P46109 125-182, looked up, human CrkL, SH3N domain, residues 125-182, in pETEV15b; source: E. coli BL21 (DE3), purified (IMAC, TEV digestion, SEC); not shown: His, N-terminal, cleaved) LEYVRTLYDFPGNDAEDLPFKKGEILVIIEKPEEQWWSARNKDGRVGMIPVPYVEKLV | 0.47 | – | –
CrkL (full-length) (natural protein, human, UniProt P46109 1-303, looked up, human CrkL, residues 1-303, in pETEV15b; also called Crk-like protein; source: E. coli BL21 (DE3), purified (IMAC, TEV digestion, SEC); not shown: His, N-terminal, cleaved) MSSARFDSSDRSAWYMGPVSRQEAQTRLQGQRHGMFLVRDSSTCPGDYVLSVSENSRVSHYIINSLPNRRFKIGDQEFDHLPALLEFYKIHYLDTTTLIEPAPRYPSPPMGSVSAPNLPTAEDNLEYVRTLYDFPGNDAEDLPFKKGEILVIIEKPEEQWWSARNKDGRVGMIPVPYVEKLVRSSPHGKHGNRNSNSYGIPEPAHAYAQPQTTTPLPAVSGSPGAAITPLPSTQNGPVFAKAIQKRVPCAYDKTALALEVGDIVKVTRMNINGQWEGEVNGRKGLFPFTHVKIFDPQNPDENE | – | 1200 | 0.78
